Paper PMC3245869 (Molecular cell, 2008)

Target: T1, Rnr2-Rnr4 heterodimer (ribonucleotide reductase small subunit) (S. cerevisiae, UniProt P09938 1-399; P49723 1-345)
T1 sequence (looked up) 1: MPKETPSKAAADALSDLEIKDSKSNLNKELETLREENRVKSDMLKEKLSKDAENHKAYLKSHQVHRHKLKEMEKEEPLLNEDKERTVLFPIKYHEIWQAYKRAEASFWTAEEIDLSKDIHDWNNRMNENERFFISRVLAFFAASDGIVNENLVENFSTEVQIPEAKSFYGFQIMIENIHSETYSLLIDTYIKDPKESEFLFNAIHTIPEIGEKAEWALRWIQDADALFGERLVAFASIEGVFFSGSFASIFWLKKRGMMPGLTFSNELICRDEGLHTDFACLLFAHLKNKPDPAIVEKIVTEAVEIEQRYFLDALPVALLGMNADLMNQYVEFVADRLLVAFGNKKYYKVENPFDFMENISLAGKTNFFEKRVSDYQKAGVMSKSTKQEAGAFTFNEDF
T1 sequence (looked up) 2: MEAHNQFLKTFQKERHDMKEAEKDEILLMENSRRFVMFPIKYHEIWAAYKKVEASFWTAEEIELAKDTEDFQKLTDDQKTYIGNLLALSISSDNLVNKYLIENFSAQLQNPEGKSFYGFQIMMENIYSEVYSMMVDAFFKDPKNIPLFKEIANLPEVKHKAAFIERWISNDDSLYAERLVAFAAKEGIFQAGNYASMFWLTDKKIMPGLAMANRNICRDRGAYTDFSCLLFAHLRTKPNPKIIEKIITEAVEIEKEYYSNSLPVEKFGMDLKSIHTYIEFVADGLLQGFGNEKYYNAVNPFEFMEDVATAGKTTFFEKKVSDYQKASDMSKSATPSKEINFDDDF
Assay: SPR

B1: Recombinant wild-type Dif1 protein (His6-Dif1) (natural protein, S. cerevisiae, UniProt O13577 1-133, looked up)
chain: MDAQLEWASSLVPKRQLQQQQQQQEQQQQQQQDFHKDQLMTVGMRIRQRVDQGYASRTPSTSDASLQPGVIRDYSSVIVPQFTRSPLPTANSLPPMLINQRTMSTEASSLEKWDVAEPAAEHETMVNGSKRRL
**Q.** With B1 as the binder, how does the Kd read?
**A.** 600 nM
